# In US20060078622A1, “Pharmaceutical formulations containing microparticles or nanoparticles of a delivery agent” (priority 2004, published 2006):
# Several values for one entry are separate records, joined by “and”; a condition that tells them apart may be missing. Identical values can stand only once. Like-named read-outs stand apart in the source and are kept apart here.
# Key:
# [1] = IV
# Description: (§1) This value was assumed to be constant in the estimates of absolute bioavailability.
# [2] = Insulin and 4-CNAB stability in simulated gastric fluid (HPLC); settings: 37° C.
# Method: The SGF was prepared with and without pepsin, a gastric enzyme. SGF pH 1.2 was prepared as per the USP NF 26 guidelines. 2 g sodium chloride and 3.2 g of pepsin were weighed and added to a suitable container, and deionized water was added to reach one liter in volume. If necessary, the pH was adjusted to 1.2 by addition of concentrated HCl or NaOH. A second SGF solution omitting the pepsin was also prepared.
# Four 50 ml samples of SGF (two with pepsin and two without) were placed into a jacketed vessel connected to a circulating water bath set at 37° C. The solutions were stirred with magnetic stir bars for ten minutes to allow the solutions to reach 37° C. and reach thermal equilibrium.
# The term “% of theoretical” as used herein, means the percent of the concentration (mg/mL) of withdrawn solution at the time-point the sample was taken as compared to the theoretical concentration (mg/mL) of the measuring component for experiment. The standard of deviation for the HPLC analysis is ±5%.
# [3] = Stability of insulin in simulated intestinal fluid (HPLC); settings: for stability of insulin / Insulin % of theoretical: 37° C.
# Method: The SIF solutions were prepared with and without pancreatic enzyme. SIF pH 7.5 was prepared as per the USP NF 26 guidelines. SIF was prepared by addition of 6.8 g monobasic potassium phosphate and 10 g of pancreatin into a suitable vessel, and deionized water was added to reach a total volume of one liter. If necessary, the pH was adjusted to 7.5 by addition of 0.2 N sodium hydroxide. A second SIF solution omitting the pancreatin, an intestinal enzyme, was also prepared.
# Four 50 ml samples of SIF (two with pancreatin and two without) were placed into a jacketed vessel connected to a circulating water bath set at 37° C. The solutions were stirred with magnetic stir bars for ten minutes to allow the solutions to reach 37° C. and reach thermal equilibrium.
# [4] = Estimates of bioavailability (absolute, portal, relative to subcutaneous)
# Description: as §1
# The portal bioavailability provides an estimate of drug absorption from oral delivery. […] This value is used to estimate bioavailability relative to subcutaneous.
# Glucose = Glucose after subcutaneous (SC) administration of insulin; format: in vivo, rat
# [5] = dose 8 μg/kg, individual animals
# [6] = dose 9 μg/kg, individual animals
substance,measurement,setting,value
Insulin: Recombinant human zinc insulin,AUC0->∞,"[1]; dose 8 μg/kg, X ± SD (n = 3)",100.7 ± 2.4 ng·min/mL
same,AUC0->∞/Dose,"[1]; dose 8 μg/kg, X ± SD (n = 3)",0.0126 ± 0.0003 kg·min/mL
same,Vd,"[1]; dose 8 μg/kg, X ± SD (n = 3)",0.157 ± 0.005 L/kg
same,AUC0->∞,[1]; [5],99.35 ng·min/mL and 99.32 ng·min/mL and 103.4 ng·min/mL
same,C0->∞/Dose,[1]; [5],0.0063 kg/mL and 0.0066 kg/mL and 0.0062 kg/mL
same,Co,[1]; [5],50.67 ng/mL and 52.64 ng/mL and 49.63 ng/mL
same,Vd,[1]; [5],0.15788 L/kg and 0.15198 L/kg and 0.16119 L/kg
same,kel,[1]; [5],0.51 min⁻¹ and 0.53 min⁻¹ and 0.48 min⁻¹
same,AUC0->∞,"[1]; dose 9 μg/kg, X ± SD (n = 3)",99.4 ± 23.6 ng·min/mL
same,AUC0->∞/Dose,"[1]; dose 9 μg/kg, X ± SD (n = 3)",0.0110 ± 0.0026 kg·min/mL
same,Co,"[1]; dose 9 μg/kg, X ± SD (n = 3)",46.1 ± 9.5 ng/mL
same,Vd,"[1]; dose 9 μg/kg, X ± SD (n = 3)",0.201 ± 0.043 L/kg
same,kel,"[1]; dose 9 μg/kg, X ± SD (n = 3)",0.47 ± 0.02 min⁻¹
same,AUC0->∞,[1]; [6],99.55 ng·min/mL and 75.67 ng·min/mL and 122.89 ng·min/mL
same,C0->∞/Dose,[1]; [6],0.0052 kg/mL and 0.0040 kg/mL and 0.0061 kg/mL
same,Co,[1]; [6],46.79 ng/mL and 36.32 ng/mL and 55.30 ng/mL
same,Vd,[1]; [6],0.19235 L/kg and 0.2478 L/kg and 0.16275 L/kg
same,kel,[1]; [6],0.47 min⁻¹ and 0.48 min⁻¹ and 0.45 min⁻¹
same,AUC0->∞/Dose,"[1]; dose […], X ± SD (n = 5)",0.0062 ± 0.0011 kg·min/mL
same,Vd,"[1]; dose […], X ± SD (n = 5)",0.219 ± 0.068 L/kg
same,C0->∞/Dose,"[1]; Average over all doses (2.5, 8, 9 μg/kg)",0.0053 kg/mL
same,insulin degraded,"[2]; SGF containing pepsin, first sampling point",97%
same,insulin remained,"[2]; SGF containing pepsin, first sampling point (0 minutes)",3.0%
same,Insulin % of theoretical,"[2]; SGF no enzymes, with 4-CNAB, 30 minutes",105.7%
same,Insulin % of theoretical,"[2]; SGF no enzymes, with 4-CNAB, 24 h",0%
same,Insulin % of theoretical,"[2]; SGF with pepsin, with 4-CNAB, 0 minutes",3.0%
same,Insulin % of theoretical,"[2]; SGF with pepsin, without 4-CNAB, 0 minutes",3.0%
same,Insulin % of theoretical,"[2]; SGF without enzymes, without 4-CNAB, 10 minutes",100.4%
same,Insulin % of theoretical,"[2]; SGF without enzymes, without 4-CNAB, 30 minutes",100.1%
same,Insulin % of theoretical,"[2]; SGF without enzymes, without 4-CNAB, 1 h",99.4%
same,Insulin % of theoretical,"[2]; SGF without enzymes, without 4-CNAB, 24 h",0%
same,time insulin is stable,[2]; SGF without pepsin,≥ 2 h
same,stability of insulin,[3]; SIF in presence of the enzyme (pancreatin),degrades
same,Insulin % of theoretical,"[3]; SIF no enzymes, with 4-CNAB, 0 minutes",100.2%
same,Insulin % of theoretical,"[3]; SIF no enzymes, with 4-CNAB, 4 minutes",106.3%
same,Insulin % of theoretical,"[3]; SIF no enzymes, with 4-CNAB, 45 minutes",99.1%
same,Insulin % of theoretical,"[3]; SIF no enzymes, with 4-CNAB, 24 hours",105.6%
same,Insulin % of theoretical,"[3]; SIF with pancreatin, with 4-CNAB, 0 minutes",58.9%
same,Insulin % of theoretical,"[3]; SIF with pancreatin, with 4-CNAB, 4 minutes",19.3%
same,Insulin % of theoretical,"[3]; SIF with pancreatin, with 4-CNAB, 6 minutes",5.4%
same,Insulin % of theoretical,"[3]; SIF without 4-CNAB or enzymes, 0 minutes",92.9%
same,Insulin % of theoretical,"[3]; SIF without 4-CNAB or enzymes, 15 minutes",92.7%
same,Insulin % of theoretical,"[3]; SIF without 4-CNAB or enzymes, 1 hour",92.7%
same,Insulin % of theoretical,"[3]; SIF without 4-CNAB or enzymes, 2 hours",94.6%
same,Insulin % of theoretical,"[3]; SIF without 4-CNAB or enzymes, 24 hours",100.4%
same,stability of insulin,[3]; SIF without pancreatin,stable
same,insulin remained,"[3]; SIF, first sampling time point (0 minutes)",58.9% and 66.9%
same,BA,[4]; SC (subcutaneous) dosing,55.67%
same,absolute bioavailability,"[4]; SC administration, rat model",approximately 56%
same,maximum absolute bioavailability of insulin,"[4]; from oral delivery or any other 100% GI absorption into the portal vein, from intraportal results, rat model",approximately 60%
same,Glucose,"Glucose; study 3, 0.05 mg/kg, time 0",83 mg/dL
same,Glucose,"Glucose; study 3, 0.05 mg/kg, time 15",66 mg/dL
same,Glucose,"Glucose; study 3, 0.05 mg/kg, time 30",60 mg/dL
same,Glucose,"Glucose; study 3, 0.05 mg/kg, time 45",61 mg/dL
same,Glucose,"Glucose; study 3, 0.05 mg/kg, time 60",73 mg/dL
same,Glucose,"Glucose; study 3, 0.05 mg/kg, time 120",98 mg/dL
same,Glucose,"Glucose; study 3, 0.05 mg/kg, time 180",105 mg/dL
same,Glucose,"Glucose; study 4, 0.05 mg/kg, time 0",73 mg/dL
same,Glucose,"Glucose; study 4, 0.05 mg/kg, time 15",66 mg/dL
same,Glucose,"Glucose; study 4, 0.05 mg/kg, time 30",59 mg/dL
same,Glucose,"Glucose; study 4, 0.05 mg/kg, time 45",64 mg/dL
same,Glucose,"Glucose; study 4, 0.05 mg/kg, time 60",72 mg/dL
same,Glucose,"Glucose; study 4, 0.05 mg/kg, time 90",88 mg/dL
same,Glucose,"Glucose; study 4, 0.05 mg/kg, time 120",110 mg/dL
same,Glucose,"Glucose; study 5, 0.05 mg/kg, time 0",60 mg/dL
same,Glucose,"Glucose; study 5, 0.05 mg/kg, time 15",42 mg/dL
same,Glucose,"Glucose; study 5, 0.05 mg/kg, time 30",38 mg/dL
same,Glucose,"Glucose; study 5, 0.05 mg/kg, time 45",42 mg/dL
same,Glucose,"Glucose; study 5, 0.05 mg/kg, time 60",48 mg/dL
same,Glucose,"Glucose; study 5, 0.05 mg/kg, time 90",52 mg/dL
same,Glucose,"Glucose; study 5, 0.05 mg/kg, time 120",66 mg/dL
same,Glucose,"Glucose; study 6, 0.05 mg/kg, time 0",68 mg/dL
same,Glucose,"Glucose; study 6, 0.05 mg/kg, time 15",40 mg/dL
same,Glucose,"Glucose; study 6, 0.05 mg/kg, time 30",39 mg/dL
same,Glucose,"Glucose; study 6, 0.05 mg/kg, time 45",36 mg/dL
same,Glucose,"Glucose; study 6, 0.05 mg/kg, time 60",32 mg/dL
same,Glucose,"Glucose; study 6, 0.05 mg/kg, time 90",35 mg/dL
same,Glucose,"Glucose; study 6, 0.05 mg/kg, time 120",39 mg/dL
same,Glucose,"Glucose; study 7, 0.05 mg/kg, time 0",65 mg/dL
same,Glucose,"Glucose; study 7, 0.05 mg/kg, time 15",45 mg/dL
same,Glucose,"Glucose; study 7, 0.05 mg/kg, time 30",39 mg/dL
same,Glucose,"Glucose; study 7, 0.05 mg/kg, time 45",40 mg/dL
same,Glucose,"Glucose; study 7, 0.05 mg/kg, time 60",42 mg/dL
same,Glucose,"Glucose; study 7, 0.05 mg/kg, time 90",42 mg/dL
same,Glucose,"Glucose; study 7, 0.05 mg/kg, time 120",50 mg/dL
same,Glucose,"Glucose; study 8, 0.05 mg/kg, time 0",70 mg/dL
same,Glucose,"Glucose; study 8, 0.05 mg/kg, time 15",59 mg/dL
same,Glucose,"Glucose; study 8, 0.05 mg/kg, time 30",64 mg/dL
same,Glucose,"Glucose; study 8, 0.05 mg/kg, time 45",69 mg/dL
same,Glucose,"Glucose; study 8, 0.05 mg/kg, time 60",73 mg/dL
same,Glucose,"Glucose; study 8, 0.05 mg/kg, time 90",89 mg/dL
same,Glucose,"Glucose; study 8, 0.05 mg/kg, time 120",106 mg/dL
